Measured values reported in the supplement of paper PMC9112550, “Optimization of the antimicrobial peptide Bac7 by deep mutational scanning” (BMC Biology, 2022).

Test system: Escherichia coli TOP10
Experiment: shrunken log2 fold change of peptide-encoding DNA abundance (4.5 h post-induction vs induction); higher = less antimicrobial activity (less host growth inhibition)
Conditions: time post-induction: 4.5 h; library: site-saturation at positions 5, 18, 19, 20
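Further: peptides expressed intracellularly from a pBAD plasmid library in pooled LB shake-flask culture, induced with 0.3% L-arabinose, DNA abundance read by NGS, three biological replicates, DESeq2 with apeglm shrinkage.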

Sequence | shrunken log2 fold change
RRIRKRPPRLPRPRPRPIFQPRP | 0.266
RRIRARPPRLPRPRPRPLVAPRP | 0.58
RRIRPRPPRLPRPRPRPAWAPRP | 0.45
RRIRIRPPRLPRPRPRPWHWPRP | -0.0771
RRIRVRPPRLPRPRPRPVSDPRP | -0.0859
RRIRTRPPRLPRPRPRPMRPPRP | 0.93
RRIRARPPRLPRPRPRPWKTPRP | -0.0874
RRIRARPPRLPRPRPRPEENPRP | 1.26
RRIRDRPPRLPRPRPRPYMFPRP | -0.244
RRIRRRPPRLPRPRPRPKYVPRP | -0.194
RRIRQRPPRLPRPRPRPCCVPRP | 0.115
RRIRRRPPRLPRPRPRPPFDPRP | 0.735
RRIRTRPPRLPRPRPRPGKMPRP | 0.181
RRIRLRPPRLPRPRPRPESPPRP | 0.124
RRIRSRPPRLPRPRPRPAEGPRP | 0.29
RRIRFRPPRLPRPRPRPNSSPRP | -0.247
RRIRCRPPRLPRPRPRPMLKPRP | -0.141
RRIRFRPPRLPRPRPRPCSHPRP | -0.336
RRIRNRPPRLPRPRPRPNRHPRP | -0.17
RRIRYRPPRLPRPRPRPWHMPRP | -0.311
RRIRTRPPRLPRPRPRPIQVPRP | -0.0152
RRIRTRPPRLPRPRPRPVFVPRP | 0.0253
RRIRHRPPRLPRPRPRPGHWPRP | -0.0325
RRIRNRPPRLPRPRPRPYYLPRP | -0.673
RRIRWRPPRLPRPRPRPCGIPRP | 0.0389

Sequence | shrunken log2 fold change
RRIRDRPPRLPRPRPRPKVCPRP | -0.0149
RRIRHRPPRLPRPRPRPCPLPRP | -0.667
RRIRNRPPRLPRPRPRPQKEPRP | -0.0193
RRIRHRPPRLPRPRPRPKQQPRP | -0.0484
RRIRHRPPRLPRPRPRPGVPPRP | 0.191
RRIRERPPRLPRPRPRPVYEPRP | -0.445
RRIRGRPPRLPRPRPRPPSKPRP | 0.58
RRIRARPPRLPRPRPRPSITPRP | 0.107
RRIRYRPPRLPRPRPRPNCFPRP | -0.43
RRIRCRPPRLPRPRPRPFTSPRP | -0.152
RRIRPRPPRLPRPRPRPGDPPRP | 0.364
RRIRQRPPRLPRPRPRPCVNPRP | 0.0293
RRIRGRPPRLPRPRPRPNSAPRP | 0.749
RRIRTRPPRLPRPRPRPCKLPRP | -0.858
RRIRCRPPRLPRPRPRPIPFPRP | -0.436
RRIRTRPPRLPRPRPRPFRHPRP | 0.00803
RRIRQRPPRLPRPRPRPTGYPRP | 0.0832
RRIRRRPPRLPRPRPRPVTEPRP | 0.285
RRIRTRPPRLPRPRPRPHTMPRP | -0.406
RRIRHRPPRLPRPRPRPNMFPRP | -0.464
RRIRMRPPRLPRPRPRPYMPPRP | -0.312
RRIRQRPPRLPRPRPRPMIYPRP | -0.0652
RRIRNRPPRLPRPRPRPCNDPRP | -0.274
RRIRLRPPRLPRPRPRPKESPRP | 0.0595
RRIRHRPPRLPRPRPRPMWRPRP | 0.136

Sequence | shrunken log2 fold change
RRIRLRPPRLPRPRPRPMHCPRP | -0.00782
RRIRRRPPRLPRPRPRPECGPRP | 0.938
RRIRNRPPRLPRPRPRPVKMPRP | -0.107
RRIRYRPPRLPRPRPRPYHAPRP | -0.194
RRIRPRPPRLPRPRPRPNRYPRP | -0.0334
RRIRTRPPRLPRPRPRPVFEPRP | -0.289
RRIRWRPPRLPRPRPRPFNTPRP | -0.0751
RRIRKRPPRLPRPRPRPVISPRP | -0.00841
RRIRNRPPRLPRPRPRPQEKPRP | -0.198
RRIRDRPPRLPRPRPRPYRPPRP | -0.00509
RRIRHRPPRLPRPRPRPWNLPRP | -0.278
RRIRSRPPRLPRPRPRPYPWPRP | -0.591
RRIRDRPPRLPRPRPRPVTDPRP | 0.0222
RRIRYRPPRLPRPRPRPQNIPRP | -1.24
RRIRFRPPRLPRPRPRPYTLPRP | -1.21
RRIRFRPPRLPRPRPRPPFNPRP | -0.245
RRIRQRPPRLPRPRPRPYAYPRP | -0.0214
RRIRFRPPRLPRPRPRPYDGPRP | -0.18
RRIRERPPRLPRPRPRPESLPRP | 0.0354
RRIRARPPRLPRPRPRPEYLPRP | -0.00441
RRIRNRPPRLPRPRPRPNICPRP | -0.0714
RRIRPRPPRLPRPRPRPPENPRP | 0.365
RRIRVRPPRLPRPRPRPPLDPRP | 0.433
RRIRNRPPRLPRPRPRPSTHPRP | -0.274
RRIRSRPPRLPRPRPRPSGFPRP | 0.0519

Sequence | shrunken log2 fold change
RRIRRRPPRLPRPRPRPEQSPRP | 0.353
RRIRIRPPRLPRPRPRPVIIPRP | -0.146
RRIRQRPPRLPRPRPRPDVDPRP | -0.152
RRIRCRPPRLPRPRPRPIIGPRP | -0.304
RRIRQRPPRLPRPRPRPTWNPRP | -0.0697
RRIRGRPPRLPRPRPRPTEFPRP | 0.327
RRIRTRPPRLPRPRPRPMIYPRP | -0.465
RRIRMRPPRLPRPRPRPRCNPRP | 0.105
RRIRYRPPRLPRPRPRPWGLPRP | -0.0143
RRIRMRPPRLPRPRPRPQESPRP | 0.55
RRIRGRPPRLPRPRPRPGAVPRP | 0.961
RRIRWRPPRLPRPRPRPEGCPRP | 1.22
RRIRFRPPRLPRPRPRPGGPPRP | 0.511
RRIRQRPPRLPRPRPRPAYIPRP | -0.00563
RRIRVRPPRLPRPRPRPIWAPRP | 0.256
RRIRARPPRLPRPRPRPCTYPRP | -0.173
RRIRMRPPRLPRPRPRPHNIPRP | -0.0272
RRIRIRPPRLPRPRPRPGTRPRP | 0.0641
RRIRFRPPRLPRPRPRPRHGPRP | 0.155
RRIRIRPPRLPRPRPRPTKQPRP | -0.242
RRIRHRPPRLPRPRPRPHAVPRP | -0.0488
RRIRARPPRLPRPRPRPLYEPRP | 0.000796
RRIRKRPPRLPRPRPRPNKKPRP | -0.279
RRIRERPPRLPRPRPRPSDCPRP | 0.00151
RRIRKRPPRLPRPRPRPIPSPRP | 0.422

Sequence | shrunken log2 fold change
RRIRLRPPRLPRPRPRPPKNPRP | 0.43
RRIRSRPPRLPRPRPRPYPTPRP | -0.234
RRIRHRPPRLPRPRPRPPDWPRP | 0.536
RRIRYRPPRLPRPRPRPEGKPRP | -0.0361
RRIRTRPPRLPRPRPRPYLMPRP | -0.601
RRIRPRPPRLPRPRPRPLSRPRP | 0.0978
RRIRWRPPRLPRPRPRPWTLPRP | -0.0248
RRIRSRPPRLPRPRPRPHCVPRP | -0.0724
RRIRARPPRLPRPRPRPRFAPRP | 0.513
RRIRDRPPRLPRPRPRPQGQPRP | 0.000653
RRIRTRPPRLPRPRPRPMTCPRP | -0.0817
RRIRCRPPRLPRPRPRPCCWPRP | 0.103
RRIRRRPPRLPRPRPRPEHYPRP | 0.0555
RRIRPRPPRLPRPRPRPKFIPRP | -0.308
RRIRARPPRLPRPRPRPAFMPRP | 0.525
RRIRFRPPRLPRPRPRPWVVPRP | 0.0143
RRIRFRPPRLPRPRPRPILCPRP | -0.192
RRIRKRPPRLPRPRPRPVRKPRP | 0.0395
RRIRMRPPRLPRPRPRPVLEPRP | 0.426
RRIRARPPRLPRPRPRPYEVPRP | -0.0785
RRIRDRPPRLPRPRPRPAPIPRP | 0.32
RRIRNRPPRLPRPRPRPHQQPRP | 0.317
RRIRWRPPRLPRPRPRPQFQPRP | -0.523
RRIRCRPPRLPRPRPRPAMTPRP | -0.0039
RRIRERPPRLPRPRPRPGVMPRP | 0.0523

Sequence | shrunken log2 fold change
RRIRLRPPRLPRPRPRPWPCPRP | 0.209
RRIRWRPPRLPRPRPRPAGPPRP | 0.235
RRIRQRPPRLPRPRPRPYVPPRP | -0.157
RRIRMRPPRLPRPRPRPFRTPRP | -0.21
RRIRMRPPRLPRPRPRPQYSPRP | 0.0353
RRIRVRPPRLPRPRPRPNYIPRP | -0.631
RRIRIRPPRLPRPRPRPWPRPRP | 0.277
RRIRARPPRLPRPRPRPAKPPRP | 0.127
RRIRRRPPRLPRPRPRPANIPRP | 0.256
RRIRKRPPRLPRPRPRPYGFPRP | -0.294
RRIRRRPPRLPRPRPRPLKSPRP | -0.215
RRIRGRPPRLPRPRPRPKLIPRP | 0.479
RRIRFRPPRLPRPRPRPCHQPRP | -0.188
RRIRWRPPRLPRPRPRPFMCPRP | -0.245
RRIRSRPPRLPRPRPRPGYMPRP | -0.148
RRIRSRPPRLPRPRPRPVEPPRP | -0.0608
RRIRARPPRLPRPRPRPKFGPRP | 0.581
RRIRCRPPRLPRPRPRPGILPRP | -0.233
RRIRERPPRLPRPRPRPDYEPRP | -0.202
RRIRCRPPRLPRPRPRPWIEPRP | -0.123
RRIRLRPPRLPRPRPRPTMKPRP | -0.0755
RRIRWRPPRLPRPRPRPQMNPRP | -0.243
RRIRDRPPRLPRPRPRPQVKPRP | -0.0431
RRIRQRPPRLPRPRPRPGPKPRP | -0.0957
RRIRERPPRLPRPRPRPSGVPRP | -0.157
